The record followed here is patent US20220288226A1 (ENOSI LIFE SCIENCES, published 2022).

In one test the target is T1, TNFR1 on cells (human, UniProt P19438 30-455).
T1 sequence: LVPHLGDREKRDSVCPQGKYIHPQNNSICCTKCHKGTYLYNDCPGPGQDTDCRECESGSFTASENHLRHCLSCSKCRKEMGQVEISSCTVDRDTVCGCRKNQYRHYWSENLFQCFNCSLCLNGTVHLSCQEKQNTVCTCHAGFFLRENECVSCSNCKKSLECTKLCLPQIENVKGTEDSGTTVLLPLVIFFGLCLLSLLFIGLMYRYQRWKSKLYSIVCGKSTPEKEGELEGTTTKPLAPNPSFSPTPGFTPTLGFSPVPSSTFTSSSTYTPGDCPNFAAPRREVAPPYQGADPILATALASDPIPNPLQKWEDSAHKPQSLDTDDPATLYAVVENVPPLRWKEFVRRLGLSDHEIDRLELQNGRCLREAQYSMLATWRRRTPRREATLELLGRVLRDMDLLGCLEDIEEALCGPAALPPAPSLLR
Nature of the test: cell-based or functional assay.

Test [1] concerns the target T2, extracellular domain of TNFR-1 (human, UniProt P19438 30-211).
T2 construct: The construct limits, tag, supplier and species are not restated there; also called TNFR1 extracellular domain; tumor necrosis factor receptor-1 (TNFR1)
T2 sequence: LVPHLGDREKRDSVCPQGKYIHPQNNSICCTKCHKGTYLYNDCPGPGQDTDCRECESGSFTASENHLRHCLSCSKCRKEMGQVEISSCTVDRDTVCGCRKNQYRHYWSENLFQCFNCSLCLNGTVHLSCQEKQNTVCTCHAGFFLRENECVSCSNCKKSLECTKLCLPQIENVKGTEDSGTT
Nature of the test: SPR (Biacore), Vhh on TNFR1 extracellular domain. The protocol: (§1) Each of Vhh 1-4 subsequently was tested in binding studies using the surface plasmon resonance (SPR) method (Sciences GL. Biacore Assay Handbook. General Electric Company (2012); and Richter et al. (2019) MAbs 11:166-177). Competition assays of Vhh inhibition of TNF-a binding to TNFR1 extracellular domain also were performed as described in Richter et al. (2019).

Test [2] deals with T2, extracellular domain of TNFR-1. Nature of the test: competition assay, Vhh inhibition of TNF binding to TNFR1; competitor TNF-a. How it is done: as §1

B1: Vhh-2 (VHH, not shown: small tags and cut ends)
VHH: EVQLLESGGGLVQPGGSLRLSCAASGFTFSQYRMHWVRQAPGKSLEWVSSIDTRGSSTYYADPVKGRFTISRDNSKNTLYLQMNSLRAEDTAVYYCAKAVTMFSPFFDYWGQGTLV
notes: it is placed last only by convention; also called Recombinant human anti-TNFRSF1A single domain antibody
As for B1, the “TNF Dependent Bioassay (IC50): VCAM” value with TNFR1 on cells worked out at 3 nM. Further, the Kd (in general, the free concentration of one partner at which half of the binding sites on the other are occupied at equilibrium, for simple one-to-one binding) in test [1] was found to be 1000 nM.

B2: Vhh-4 (VHH)
VHH: EVQLLESGGGLVQPGGSLRLSCAASGFTFAHETMVWVRQAPGKGLEWVSHIPPDGQDPFYADSVKGRFTISRDNSKNTLYLQMNSLRAEDTAVYHCALLPKRGPWFDYWGQGTLVTVSS
notes: also called DOM1h-131-206
Turning to B2, the “TNF Dependent Bioassay (IC50): VCAM” value with TNFR1 on cells turned out to be 0.3 nM. This molecule came in with a Kd in test [1] of 0.00066 nM. For the same molecule, the IC50 (usually the concentration needed to halve the response being measured) in test [2] was ~1 nM.
